Assay results from patent US7745147 (VIRANATIVE, dated 2010).

What was measured:
[1] = target: concentrated crude leukocyte interferon alpha; assay: immunoaffinity chromatography, antibody on CNBr-Sepharose; interferon alpha ELISA of fractions; second row for this antibody
[2] = target: concentrated crude leukocyte interferon alpha; assay: pilot-scale immunoaffinity chromatography, crude interferon from lab fermenter, experiment P-434
[3] = target: concentrated crude leukocyte interferon alpha; assay: immunoaffinity chromatography of crude leukocyte interferon alpha (Example 1)
[4] = target: concentrated crude leukocyte interferon alpha; assay: capacity of immunoaffinity gel, 7 mg antibody/mL CNBr-activated Sepharose FF
[5] = target: T1, human interferon alpha 14 (human, UniProt P01570 24-189); assay: immunoaffinity column loaded with crude leukocyte interferon alpha; RP-HPLC of eluate
T1 construct: One entry serves both the natural leukocyte protein and the bought recombinant protein; also called α14; IFN-α14
Description: The antibodies were all bound to CNBr-activated Sepharose gel. […] Impurities and unbound material were removed from the column by washing with buffer. Interferon alpha was eluted with citric-acid buffer, pH2. Unbound, flow-through fractions, and eluate fractions were analysed for interferon alpha using a specific ELISA. The eluate fraction was analysed for its complement of interferon alpha proteins using reversed-phase HPLC (RP-HPLC). Interferon alpha specific activity was determined using a cytopathic protective effect assay with MDBK cells. All samples were analysed twice. The experiments were repeated with a second batch of concentrated crude leukocyte interferon alpha.
Rather, the interferon alpha protein pattern is compared to assess whether all the expected peaks are present.

[6] = target: concentrated crude leukocyte interferon alpha; assay: pilot-scale immunoaffinity chromatography, crude interferon batch K-543, experiment P-429
[7] = target: T2, human interferon alpha 16 (human, UniProt P05015 24-189); assay: 3-A3-2 immunoaffinity column, 10,000 IU load; Daudi cell anti-proliferative assay of fractions
T2 construct: also called α16; IFN-α16

human interferon alpha 5 = target: T3, human interferon alpha 5 (human, UniProt P01569 24-189, limits assumed); assay: as above
T3 construct: also called α5; IFN-α5

human interferon alpha 1 = target: T4, human interferon alpha 1 (human, UniProt P0DY56 24-189); assay: immunoaffinity chromatography (Examples 1, 3, 4 and 5)
T4 construct: also called α1; IFN-α1

[8] = target: concentrated crude leukocyte interferon alpha; assay: immunoaffinity chromatography, antibody on CNBr-Sepharose; interferon alpha ELISA of fractions

Flow-through (%) [1]: 5%
eluate (IU) [1]: 17 IU
recovery (%) [1]: 61%
IFN-α eluate yield (%) [2]: 70%
Flow-through (%) [3]: < 5%
interferon capacity [4]: 22.5 MIU/ml gel
binding result [5]: binds
IFN-α eluate yield (%) [6]: 73%
binding result [7]: binds
binding result (human interferon alpha 5): binds
binding result (human interferon alpha 1): binds
Flow-through (%) [8]: 1%
eluate (IU) [8]: 16.5 IU
recovery (%) [8]: 66%
B1: Monoclonal antibody 3-A3-2 (antibody, mouse IgG1, V domains shown)
VH: QVQLQESGTVLARPGASVKMSCKASGYSFTTYWMHWVKQRPGQGLEWIGVIYPGNGDTTYNQKFKDKAKLTAVTSANTAYMELSSLTNEDSAVYFCTRNYKYDYYTMDYWGQGTTVTVSS
VL: DIVLTQSPASLAVSLGQRATISCRASKSVSTSGHSYMHWYQQKPGQTPKLLIYLASNLESGVPARFSGSGSGTDFTLNIHPVEEEDAATYYCQHSGELPFTFGSGTKLEIK
notes: Murine IgG1/kappa from hybridoma 3-A3-2 (ECACC 05030201); also called monoclonal 3-A3-2; 3A32 Ab
